Reference: patent US20150017651A1 (University of Texas, published 2015)
One block for each binder: values may come before it.

Target: mTOR (human, UniProt P42345 1-2549)
Experiment: IP-Western, BE3 or SKGT4 cells

binding result: no binding
B1: Gli3 (other)
chain: MEAQSHSSTTTEKKKVENSIVKCSTRTDVSEKAVASSTTSNEDESPGQTYHRERRNAITMQPQNVQGLSKVSEEPSTSSDERASLIKKEIHGSLPHVAEPSVPYRGTVFAMDPRNGYMEPHYHPPHLFPAFHPPVPIDARHHEGRYHYDPSPIPPLHMTSALSSSPTYPDLPFIRISPHRNPTAASESPFSPPHPYINPYMDYIRSLHSSPSLSMISATRGLSPTDAPHAGVSPAEYYHQMALLTGQRSPYADIIPSAATAGTGAIHMEYLHAMDSTRFSSPRLSARPSRKRTLSISPLSDHSFDLQTMIRTSPNSLVTILNNSRSSSSASGSYGHLSASAISPALSFTYSSAPVSLHMHQQILSRQQSLGSAFGHSPPLIHPAPTFPTQRPIPGIPTVLNPVQVSSGPSESSQNKPTSESAVSSTGDPMHNKRSKIKPDEDLPSPGARGQQEQPEGTTLVKEEGDKDESKQEPEVIYETNCHWEGCAREFDTQEQLVHHINNDHIHGEKKEFVCRWLDCSREQKPFKAQYMLVVHMRRHTGEKPHKCTFEGCTKAYSRLENLKTHLRSHTGEKPYVCEHEGCNKAFSNASDRAKHQNRTHSNEKPYVCKIPGCTKRYTDPSSLRKHVKTVHGPEAHVTKKQRGDIHPRPPPPRDSGSHSQSRSPGRPTQGALGEQQDLSNTTSKREECLQVKTVKAEKPMTSQPSPGGQSSCSSQQSPISNYSNSGLELPLTDGGSIGDLSAIDETPIMDSTISTATTALALQARRNPAGTKWMEHVKLERLKQVNGMFPRLNPILPPKAPAVSPLIGNGTQSNNTCSLGGPMTLLPGRSDLSGVDVTMLNMLNRRDSSASTISSAYLSSRRSSGISPCFSSRRSSEASQAEGRPQNVSVADSYDPISTDASRRSSEASQSDGLPSLLSLTPAQQYRLKAKYAAATGGPPPTPLPNMERMSLKTRLALLGDALEPGVALPPVHAPRRCSDGGAHGYGRRHLQPHDAPGHGVRRASDPVRTGSEGLALPRVPRFSSLSSCNPPAMATSAEKRSLVLQNYTRPEGGQSRNFHSSPCPPSITENVTLESLTMDADANLNDEDFLPDDVVQYLNSQNQAGYEQHFPSALPDDSKVPHGPGDFDAPGLPDSHAGQQFHALEQPCPEGSKTDLPIQWNEVSSGSADLSSSKLKCGPRPAVPQTRAFGFCNGMVVHPQNPLRSGPAGGYQTLGENSNPYGGPEHLMLHNSPGSGTSGNAFHEQPCKAPQYGNCLNRQPVAPGALDGACGAGIQASKLKSTPMQGSGGQLNFGLPVAPNESAGSMVNGMQNQDPVGQGYLAHQLLGDSMQHPGAGRPGQQMLGQISATSHINIYQGPESCLPGAHGMGSQPSSLAVVRGYQPCASFGGSRRQAMPRDSLALQSGQLSDTSQTCRVNGIKMEMKGQPHPLCSNLQNYSGQFYDQTVGFSQQDTKAGSFSISDASCLLQGTSAKNSELLSPGANQVTSTVDSLDSHDLEGVQIDFDAIIDDGDHSSLMSGALSPSIIQNLSHSSSRLTTPRASLPFPALSMSTTNMAIGDMSSLLTSLAEESKFLAVMQ

binding result: no binding
B2: Gli2 (other)
chain: METSASATASEKQEAKSGILEAAGFPDPGKKASPLVVAAAAAAAVAAQGVPQHLLPPFHAPLPIDMRHQEGRYHYEPHSVHGVHGPPALSGSPVISDISLIRLSPHPAGPGESPFNAPHPYVNPHMEHYLRSVHSSPTLSMISAARGLSPADVAQEHLKERGLFGLPAPGTTPSDYYHQMTLVAGHPAPYGDLLMQSGGAASAPHLHDYLNPVDVSRFSSPRVTPRLSRKRALSISPLSDASLDLQRMIRTSPNSLVAYINNSRSSSAASGSYGHLSAGALSPAFTFPHPINPVAYQQILSQQRGLGSAFGHTPPLIQPSPTFLAQQPMALTSINATPTQLSSSSNCLSDTNQNKQSSESAVSSTVNPVAIHKRSKVKTEPEGLRPASPLALTQGQVSGHGSCGCALPLSQEQLADLKEDLDRDDCKQEAEVVIYETNCHWEDCTKEYDTQEQLVHHINNEHIHGEKKEFVCRWQACTREQKPFKAQYMLVVHMRRHTGEKPHKCTFEGCSKAYSRLENLKTHLRSHTGEKPYVCEHEGCNKAFSNASDRAKHQNRTHSNEKPYICKIPGCTKRYTDPSSLRKHVKTVHGPDAHVTKKQRNDVHLRTPLLKENGDSEAGTEPGGPESTEASSTSQAVEDCLHVRAIKTESSGLCQSSPGAQSSCSSEPSPLGSAPNNDSGVEMPGTGPGSLGDLTALDDTPPGADTSALAAPSAGGLQLRKHMTTMHRFEQLKKEKLKSLKDSCSWAGPTPHTRNTKLPPLPGSGSILENFSGSGGGGPAGLLPNPRLSELSASEVTMLSQLQERRDSSTSTVSSAYTVSRRSSGISPYFSSRRSSEASPLGAGRPHNASSADSYDPISTDASRRSSEASQCSGGSGLLNLTPAQQYSLRAKYAAATGGPPPTPLPGLERMSLRTRLALLDAPERTLPAGCPRPLGPRRGSDGPTYGHGHAGAAPAFPHEAPGGGARRASDPVRRPDALSLPRVQRFHSTHNVNPGPLPPCADRRGLRLQSHPSTDGGLARGAYSPRPPSISENVAMEAVAAGVDGAGPEADLGLPEDDLVLPDDVVQYIKAHASGALDEGTGQVYPTESTGFSDNPRLPSPGLHGQRRMVAADSNVGPSAPMLGGCQLGFGAPSSLNKNNMPVQWNEVSSGTVDALASQVKPPPFPQGNLAVVQQKPAFGQYPGYSPQGLQASPGGLDSTQPHLQPRSGAPSQGIPRVNYMQQLRQPVAGSQCPGMTTTMSPHACYGQVHPQLSPSTISGALNQFPQSCSNMPAKPGHLGHPQQTEVAPDPTTMGNRHRELGVPDSALAGVPPPHPVQSYPQQSHHLAASMSQEGYHQVPSLLPARQPGFMEPQTGPMGVATAGFGLVQPRPPLEPSPTGRHRGVRAVQQQLAYARATGHAMAAMPSSQETAEAVPKGAMGNMGSVPPQPPPQDAGGAPDHSMLYYYGQIHMYEQDGGLENLGSCQVMRSQPPQPQACQDSIQPQPLPSPGVNQVSSTVDSQLLEAPQIDFDAIMDDGDHSSLFSGALSPSLLHSLSQNSSRLTTPRNSLTLPSIPAGISNMAVGDMSSMLTSLAEESKFLNMMT
